Sequences and labels used below:
T1: human plasmin (Human), P00747
T1 chain: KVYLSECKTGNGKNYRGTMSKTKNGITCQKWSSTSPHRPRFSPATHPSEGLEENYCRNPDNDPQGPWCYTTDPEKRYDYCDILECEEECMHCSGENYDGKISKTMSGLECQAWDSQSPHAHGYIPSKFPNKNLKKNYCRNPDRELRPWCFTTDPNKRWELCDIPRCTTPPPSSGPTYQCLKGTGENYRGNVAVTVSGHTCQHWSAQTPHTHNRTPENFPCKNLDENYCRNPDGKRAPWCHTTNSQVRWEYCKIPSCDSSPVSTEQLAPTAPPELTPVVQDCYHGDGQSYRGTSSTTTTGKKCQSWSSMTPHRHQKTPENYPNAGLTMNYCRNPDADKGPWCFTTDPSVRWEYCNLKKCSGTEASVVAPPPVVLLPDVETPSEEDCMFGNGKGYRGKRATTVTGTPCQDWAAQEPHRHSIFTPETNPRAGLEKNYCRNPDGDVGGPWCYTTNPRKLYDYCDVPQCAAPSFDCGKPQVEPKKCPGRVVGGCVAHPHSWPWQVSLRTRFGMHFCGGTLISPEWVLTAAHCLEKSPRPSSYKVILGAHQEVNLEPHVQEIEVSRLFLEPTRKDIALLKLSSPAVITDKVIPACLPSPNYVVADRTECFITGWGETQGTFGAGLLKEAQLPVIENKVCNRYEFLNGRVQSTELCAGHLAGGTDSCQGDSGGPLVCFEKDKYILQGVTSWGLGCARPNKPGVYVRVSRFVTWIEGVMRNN

T2: porcine trypsin (Porcine), P00761
T2 chain: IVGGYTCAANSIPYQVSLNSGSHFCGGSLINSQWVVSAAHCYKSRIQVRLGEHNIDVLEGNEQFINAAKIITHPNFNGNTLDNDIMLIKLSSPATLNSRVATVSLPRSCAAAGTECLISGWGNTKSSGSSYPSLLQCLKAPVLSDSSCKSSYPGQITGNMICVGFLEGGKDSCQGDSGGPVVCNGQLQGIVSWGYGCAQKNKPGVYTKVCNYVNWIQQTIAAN

Ki data for 10 molecules are collected here from US20090130692A1.

sheep tryptase ST2 (Sheep), sequence (Q9XSM2 29-273): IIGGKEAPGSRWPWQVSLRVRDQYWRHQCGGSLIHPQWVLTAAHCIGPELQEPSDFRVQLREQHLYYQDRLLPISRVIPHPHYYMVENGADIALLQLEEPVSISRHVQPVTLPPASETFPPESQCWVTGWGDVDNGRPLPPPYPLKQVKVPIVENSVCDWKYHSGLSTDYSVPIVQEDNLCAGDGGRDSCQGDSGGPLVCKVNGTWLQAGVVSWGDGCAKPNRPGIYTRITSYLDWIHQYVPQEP
human tryptase β-Ia (Human), Q15661, sequence (Q15661 31-275 limits assumed): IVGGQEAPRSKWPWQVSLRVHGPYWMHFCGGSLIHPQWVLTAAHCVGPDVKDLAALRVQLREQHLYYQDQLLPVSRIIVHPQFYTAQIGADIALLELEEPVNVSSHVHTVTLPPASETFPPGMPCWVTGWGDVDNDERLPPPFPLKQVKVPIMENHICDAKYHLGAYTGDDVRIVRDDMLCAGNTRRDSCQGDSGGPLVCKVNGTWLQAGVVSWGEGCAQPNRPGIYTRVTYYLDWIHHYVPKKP
human tryptase β-II (Human), P20231, sequence (P20231 31-275 limits assumed): as the sequence (Q15661 31-275 limits assumed) above, with H21R, G22D, P23R counted along it

The target of one test is hK3 (human kallikrein) (Human), P07288. Briefly: enzyme inhibition, selectivity panel; apparent Ki (Kiapp).
hK3 (human kallikrein) (Human), P07288, sequence (P07288 25-261): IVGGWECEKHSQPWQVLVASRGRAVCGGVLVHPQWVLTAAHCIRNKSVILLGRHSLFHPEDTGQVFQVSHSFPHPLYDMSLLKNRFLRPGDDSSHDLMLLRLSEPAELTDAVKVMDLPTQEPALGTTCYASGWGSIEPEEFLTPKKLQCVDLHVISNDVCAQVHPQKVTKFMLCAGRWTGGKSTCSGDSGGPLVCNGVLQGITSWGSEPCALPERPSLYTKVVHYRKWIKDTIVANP
GVCPRILKKCRRDSDCPGACICRGNGYCG (modifications not checked) [MCoTI-R]: the Ki is 100 nM.

The target in another test is T1, human plasmin (Human), P00747. The test is described as above.
GVCPKILKKCRRDSDCLAGCVCGPNGFCGS (modifications not checked) [SE-MG-0]: the Ki is 600 nM.
Still for that read-out and setting: then KKVGVCPKILKKCRRDSDCPGACICRGNGYCG (modifications not checked) [MCoTI-KKV], with 400 nM.

The next test has as its target human tryptase β-II (Human), P20231. Described as above.
Consider GVCPKILKKCRRDSDCLAGCVCGPNGFCGS (modifications not checked) [SE-MG-0], for which the Ki is 70 nM.
GVCPRILKKCRRDSDCPGACICRGNGYCG (modifications not checked) [MCoTI-R]: the Ki worked out at 40 nM.
KKVGVCPKILKKCRRDSDCPGACICRGNGYCG (modifications not checked) [MCoTI-KKV]: the Ki amounted to 4 nM.

The next test has as its target human tryptase β-Ia (Human), Q15661. The test is described as above.
In the case of GVCPKILKKCRRDSDCLAGCVCGPNGFCGS (modifications not checked) [SE-MG-0], the Ki was determined as 70 nM.
GVCPRILKKCRRDSDCPGACICRGNGYCG (modifications not checked) [MCoTI-R]: the Ki came to 40 nM.
Same read-out and setting: then KKVGVCPKILKKCRRDSDCPGACICRGNGYCG (modifications not checked) [MCoTI-KKV], with 3 nM.

The target in a further test is T2, porcine trypsin (Porcine), P00761. Described as above.
For the molecule GVCPKILKKCRRDSDCLAGCVCGPNGFCGS (modifications not checked) [SE-MG-0], the Ki worked out at 0.3 nM.
The same measure, in the same setting: then GVCPRILKKCRRDSDCPGACICRGNGYCG (modifications not checked) [MCoTI-R], with 0.8 nM; and KKVGVCPKILKKCRRDSDCPGACICRGNGYCG (modifications not checked) [MCoTI-KKV], with 0.4 nM.

Another test addresses sheep tryptase ST2 (Sheep). The test is described as above.
Regarding GVCPKILKKCRRDSDCLAGCVCGPNGFCGS (modifications not checked) [SE-MG-0], the Ki amounted to 4000 nM.
The same measure, in the same setting: then GVCPRILKKCRRDSDCPGACICRGNGYCG (modifications not checked) [MCoTI-R], with 1000 nM; and KKVGVCPKILKKCRRDSDCPGACICRGNGYCG (modifications not checked) [MCoTI-KKV], with 100 nM.

The next test deals with bovine pancreatic trypsin (bovine), P00760. Briefly: enzyme inhibition; residual trypsin activity fitted to tight-binding equation (Morrison); apparent Ki (Kiapp).
bovine pancreatic trypsin (bovine), P00760, sequence (P00760 24-246): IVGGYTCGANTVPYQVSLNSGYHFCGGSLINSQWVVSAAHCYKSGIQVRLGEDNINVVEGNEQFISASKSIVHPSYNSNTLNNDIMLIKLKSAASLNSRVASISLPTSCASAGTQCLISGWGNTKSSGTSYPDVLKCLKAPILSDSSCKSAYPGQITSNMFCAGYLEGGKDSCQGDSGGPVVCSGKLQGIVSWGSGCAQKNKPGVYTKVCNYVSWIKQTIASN
GVCPKILKACRRDSDCPGACICRGNGYCG (modifications not checked) [MCoTI-LKAC]: the Ki was 0.4 nM.
For the molecule GVCPKILAKCRRDSDCPGACICRGNGYCG (modifications not checked) [MCoTI-LAKC], the Ki was found to be 0.2 nM.
Take GVCPKILKKCRRDSDCLAGCVCGPNGFCGS (modifications not checked) [SE-MG-0]: the Ki turned out to be 0.3 nM.
For GSVCPKILKKCRRDSDCLAGCVCGPNGFCGS (modifications not checked) [MCoEeTI], the Ki was 0.03 nM.
For the molecule GVCPKILKKCRRDSDCPGACICRGNGYCG (modifications not checked) [SE-MC-K], the Ki was 0.3 nM.
The same measure, in the same setting: then GVCPGILKKCRRDSDCPGACICRGNGYCG (modifications not checked) [MCoTI-AlaG], with 1000 nM.
Regarding GVCPRILKKCRRDSDCPGACICRGNGYCG (modifications not checked) [MCoTI-R], the Ki amounted to 0.8 nM.
Turning to GVCPKILKRCRRDSDCPGACICRGNGYCG (modifications not checked) [MCoTI-LKRC], the Ki is 0.4 nM.
For the molecule KKVGVCPKILKKCRRDSDCPGACICRGNGYCG (modifications not checked) [MCoTI-KKV], the Ki came out at 0.4 nM.
GVCPKILRKCRRDSDCPGACICRGNGYCG (modifications not checked) [MCoTI-LRKC]: the Ki is 0.5 nM.
